Consider one molecule from article PMC3174691 (Journal of molecular biology, 2008).

The target of this test is T1, E. coli RecB (E. coli, UniProt P08394 1-1180).
T1 sequence (looked up): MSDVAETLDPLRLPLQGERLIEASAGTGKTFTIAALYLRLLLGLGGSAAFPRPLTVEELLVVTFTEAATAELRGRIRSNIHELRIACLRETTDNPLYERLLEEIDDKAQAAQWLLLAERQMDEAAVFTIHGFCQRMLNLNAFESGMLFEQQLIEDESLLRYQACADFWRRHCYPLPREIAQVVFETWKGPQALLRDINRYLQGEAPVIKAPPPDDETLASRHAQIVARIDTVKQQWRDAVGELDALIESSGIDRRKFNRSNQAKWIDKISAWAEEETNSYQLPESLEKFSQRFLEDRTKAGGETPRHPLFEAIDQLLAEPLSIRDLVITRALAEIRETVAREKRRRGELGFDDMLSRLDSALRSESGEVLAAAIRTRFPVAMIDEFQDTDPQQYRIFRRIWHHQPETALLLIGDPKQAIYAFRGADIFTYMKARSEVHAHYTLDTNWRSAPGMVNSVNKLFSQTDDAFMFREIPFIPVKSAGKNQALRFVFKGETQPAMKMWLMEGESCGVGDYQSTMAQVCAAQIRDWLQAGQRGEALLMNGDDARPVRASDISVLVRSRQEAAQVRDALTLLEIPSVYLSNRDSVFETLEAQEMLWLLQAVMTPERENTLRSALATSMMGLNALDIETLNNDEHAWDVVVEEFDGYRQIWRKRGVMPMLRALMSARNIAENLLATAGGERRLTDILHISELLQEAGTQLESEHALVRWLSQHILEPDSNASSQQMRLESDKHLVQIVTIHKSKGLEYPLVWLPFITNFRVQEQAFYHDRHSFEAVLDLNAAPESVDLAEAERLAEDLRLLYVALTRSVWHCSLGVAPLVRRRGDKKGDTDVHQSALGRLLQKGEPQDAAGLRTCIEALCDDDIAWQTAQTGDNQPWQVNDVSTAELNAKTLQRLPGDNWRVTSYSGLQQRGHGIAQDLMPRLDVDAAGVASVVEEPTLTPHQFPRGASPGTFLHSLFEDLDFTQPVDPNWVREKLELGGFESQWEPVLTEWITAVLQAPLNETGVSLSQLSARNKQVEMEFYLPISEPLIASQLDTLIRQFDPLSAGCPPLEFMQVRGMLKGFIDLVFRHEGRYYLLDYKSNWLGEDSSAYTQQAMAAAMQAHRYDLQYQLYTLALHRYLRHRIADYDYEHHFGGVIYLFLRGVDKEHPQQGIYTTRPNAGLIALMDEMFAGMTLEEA
Nature of the test: reconstitution of the complex by mixing.

B1: E. coli RecC (natural protein, UniProt P07648 1-1122, looked up)
chain: MLRVYHSNRLDVLEALMEFIVERERLDDPFEPEMILVQSTGMAQWLQMTLSQKFGIAANIDFPLPASFIWDMFVRVLPEIPKESAFNKQSMSWKLMTLLPQLLEREDFTLLRHYLTDDSDKRKLFQLSSKAADLFDQYLVYRPDWLAQWETGHLVEGLGEAQAWQAPLWKALVEYTHQLGQPRWHRANLYQRFIETLESATTCPPGLPSRVFICGISALPPVYLQALQALGKHIEIHLLFTNPCRYYWGDIKDPAYLAKLLTRQRRHSFEDRELPLFRDSENAGQLFNSDGEQDVGNPLLASWGKLGRDYIYLLSDLESSQELDAFVDVTPDNLLHNIQSDILELENRAVAGVNIEEFSRSDNKRPLDPLDSSITFHVCHSPQREVEVLHDRLLAMLEEDPTLTPRDIIVMVADIDSYSPFIQAVFGSAPADRYLPYAISDRRARQSHPVLEAFISLLSLPDSRFVSEDVLALLDVPVLAARFDITEEGLRYLRQWVNESGIRWGIDDDNVRELELPATGQHTWRFGLTRMLLGYAMESAQGEWQSVLPYDESSGLIAELVGHLASLLMQLNIWRRGLAQERPLEEWLPVCRDMLNAFFLPDAETEAAMTLIEQQWQAIIAEGLGAQYGDAVPLSLLRDELAQRLDQERISQRFLAGPVNICTLMPMRSIPFKVVCLLGMNDGVYPRQLAPLGFDLMSQKPKRGDRSRRDDDRYLFLEALISAQQKLYISYIGRSIQDNSERFPSVLVQELIDYIGQSHYLPGDEALNCDESEARVKAHLTCLHTRMPFDPQNYQPGERQSYAREWLPAASQAGKAHSEFVQPLPFTLPETVPLETLQRFWAHPVRAFFQMRLQVNFRTEDSEIPDTEPFILEGLSRYQINQQLLNALVEQDDAERLFRRFRAAGDLPYGAFGEIFWETQCQEMQQLADRVIACRQPGQSMEIDLACNGVQITGWLPQVQPDGLLRWRPSLLSVAQGMQLWLEHLVYCASGGNGESRLFLRKDGEWRFPPLAAEQALHYLSQLIEGYREGMSAPLLVLPESGGAWLKTCYDAQNDAMLDDDSTLQKARTKFLQAYEGNMMVRGEGDDIWYQRLWRQLTPETMEAIVEQSQRFLLPLFRFNQS
As to B1, the binding result is “binds”.
